The values below come from patent US20240018256A1 (JUNO THERAPEUTICS, published 2024).

The target in test [1] is T1, human CD19 (human, UniProt P15391 20-556).
T1 sequence: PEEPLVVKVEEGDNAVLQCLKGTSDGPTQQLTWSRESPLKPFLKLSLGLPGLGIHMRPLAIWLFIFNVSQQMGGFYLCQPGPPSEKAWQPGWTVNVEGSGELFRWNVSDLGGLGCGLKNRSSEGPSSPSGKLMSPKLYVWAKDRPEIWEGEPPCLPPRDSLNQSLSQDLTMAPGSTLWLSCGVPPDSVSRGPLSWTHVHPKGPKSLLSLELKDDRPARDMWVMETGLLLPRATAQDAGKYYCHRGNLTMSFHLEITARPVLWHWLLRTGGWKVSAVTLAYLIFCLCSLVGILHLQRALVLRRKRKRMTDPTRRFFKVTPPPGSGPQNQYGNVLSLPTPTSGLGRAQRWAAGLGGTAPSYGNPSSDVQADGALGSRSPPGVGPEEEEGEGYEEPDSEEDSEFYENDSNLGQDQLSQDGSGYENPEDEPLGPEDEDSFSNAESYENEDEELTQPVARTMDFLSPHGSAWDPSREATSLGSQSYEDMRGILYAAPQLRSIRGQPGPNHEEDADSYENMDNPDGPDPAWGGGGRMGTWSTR
As to the kind of experiment: flow cytometry competition for binding with FMC63 (n = 3).

In test [2] the target is T1, human CD19. As to the kind of experiment: flow cytometry on CD19-expressing cells (n = 2). A general note: A flow cytometer gives signals particle by particle.
Test [3] deals with T1, human CD19. As to the kind of experiment: flow cytometry competition for binding with FMC63.
The target in test [4] is T1, human CD19. As to the kind of experiment: flow cytometry on CD19-expressing cells (n = 1). An excerpt:
Various clones were titrated and their binding affinity (EC50) to various CD19-expressing cells assessed by flow cytometry.

What is called IC50 is the concentration needed to halve the response being measured. Read a low IC50 as inhibition by little substance. The term EC50 denotes the concentration giving half of the maximal effect. A high value points to a need for much substance.

B1: Clone 241 scFv (scFv)
scFv: EVQLVQSGGGLVQPGRSLRLSCAASGFTFDDYAMHWVRQAPGKGLEWVSGISWNSGSIGYADSVKGRFTISRDNAKNSLYLQMNSLRAEDTAVYYCARDQGYHYYDSAEHAFDIWGQGTVVTVSSGGGGSGGGGSGGGGSAIRMTQSPSSLSASVGDRVTVTCQASQDISNYLNWYQQKPGRAPKLLIYDASNVKAGVPSRFSGGGSGTDFTLTISSLQPEDFATYYCQQSYSTPQAYTFGQGTKLDIK
notes: Human scFv
The molecule B1 displayed an IC50 in test [1] of 14.6 nM. In addition, in test [2], the EC50 is 5.2 nM.

B2: Clone 835 scFv (scFv)
scFv: EVQLVESGGGLVQPGRSLRLSCAASGFTFDDYAMHWVRLAPGKGLEWVSGISWNSGRIGYADSVKGRFTISRDNAKNSLFLQMNSLRAKDTAVYYCARDQGYHYYDSAEHAFDIWGQGTMVTVSSGGGGSGGGGSGGGGSQSVLTQPRSVSGSPGQSVTISCTGPISGVGDYTSVSWYQHYPGKTPKLIIYDVTQRPSGVPNRFSGSKSGNTASLTISGLQADDEADYYCCSYEAPTHTYVFGTGTKLTVL
notes: Human scFv
Consider B2, for which the IC50 in test [3] is over 200 nM. This molecule gave an EC50 in test [4] of 71.8 nM.
